Measured values from publication PMC9352680, “A comprehensive thermodynamic model for RNA binding by the Saccharomyces cerevisiae Pumilio protein PUF4”.
Substitutions are numbered along the chain they refer to. Names and notes keep the numbering of the source.

T1: PUF4 RNA-binding domain (Saccharomyces cerevisiae, UniProt P25339 537-888)
T1 sequence: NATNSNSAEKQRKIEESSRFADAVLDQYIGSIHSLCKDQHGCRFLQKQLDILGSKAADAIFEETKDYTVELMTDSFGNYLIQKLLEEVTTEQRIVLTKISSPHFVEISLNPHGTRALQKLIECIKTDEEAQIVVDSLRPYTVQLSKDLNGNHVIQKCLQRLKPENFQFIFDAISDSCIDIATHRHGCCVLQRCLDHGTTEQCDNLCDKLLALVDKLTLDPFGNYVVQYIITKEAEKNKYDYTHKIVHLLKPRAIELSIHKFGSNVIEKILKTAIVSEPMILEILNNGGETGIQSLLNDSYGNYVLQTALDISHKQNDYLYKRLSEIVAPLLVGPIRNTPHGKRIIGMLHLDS

B1: Id_ii_S2_P5E.4_K5.3_C5.2_[C-2T]_[T-1A]_H5.3_A5.1_F5.1_T5.2_[A12C] (ssRNA)
RNA: UUUGAUUAAUAUGAUAUCGUUCUUUCUUAACACUUAUUAUCUUCUUUCUCGAUAUCAUAUUAAUCUUU
B2: Id_ii_S2_P5E.4_K5.3_C5.2_[C-2A]_[T-1C]_H5.3_A5.1_F5.1_T5.2 (ssRNA)
RNA: B1 RNA with U28A, A29C, C41A
B3: Id_ii_S2_P5E.4_K5.3_C5.2_[C-2A]_H5.3_A5.1_F5.1_T5.2 (ssRNA)
RNA: B1 RNA with U28A, A29U, C41A
B4: Id_ii_S2_P5E.4_K5.3_C5.2_[C-2A]_[T-1C]_H5.3_A5.1_F5.1_T5.2_[T11G]_[A12C] (ssRNA)
RNA: B1 RNA with U28A, A29C, U40G
B5: Id_ii_S2_P5E.4_K5.3_C5.2_[C-2A]_[T-1A]_H5.3_A5.1_F5.1_T5.2_[A12C] (ssRNA)
RNA: B1 RNA with U28A
B6: Id_ii_S2_P5E.4_K5.3_C5.2_[C-2A]_H5.3_A5.1_F5.1_T5.2_[T11A]_[A12T] (ssRNA)
RNA: B1 RNA with U28A, A29U, U40A, C41U
B7: Id_ii_S2_P5E.4_K5.3_C5.2_[C-2A]_H5.3_A5.1_F5.1_T5.2_[A12T] (ssRNA)
RNA: B1 RNA with U28A, A29U, C41U
B8: Id_ii_S2_P5E.4_K5.3_C5.2_[C-2A]_[T-1A]_H5.3_A5.1_F5.1_T5.2_[T11C] (ssRNA)
RNA: B1 RNA with U28A, U40C, C41A
B9: Id_ii_S2_P5E.4_K5.3_C5.2_[C-2A]_H5.3_A5.1_F5.1_T5.2_[T11G]_[A12C] (ssRNA)
RNA: B1 RNA with U28A, A29U, U40G
B10: Id_ii_S2_P5E.4_K5.3_C5.2_[C-2A]_[T-1A]_H5.3_A5.1_F5.1_T5.2_[T11C]_[A12G] (ssRNA)
RNA: B1 RNA with U28A, U40C, C41G
B11: Id_ii_S2_P5E.4_K5.3_C5.2_[C-2T]_H5.3_A5.1_F5.1_T5.2_[A12T] (ssRNA)
RNA: B1 RNA with A29U, C41U
B12: Id_ii_S2_P5E.4_K5.3_C5.2_[C-2A]_H5.3_A5.1_F5.1_T5.2_[T11A]_[A12C] (ssRNA)
RNA: B1 RNA with U28A, A29U, U40A
B13: Id_ii_S2_P5E.4_K5.3_C5.2_[C-2A]_[T-1C]_H5.3_A5.1_F5.1_T5.2_[T11A] (ssRNA)
RNA: B1 RNA with U28A, A29C, U40A, C41A
B14: Id_ii_S2_P5E.4_K5.3_C5.2_[C-2T]_[T-1A]_H5.3_A5.1_F5.1_T5.2 (ssRNA)
RNA: B1 RNA with C41A
B15: Id_ii_S2_P5E.4_K5.3_C5.2_[C-2A]_[T-1C]_H5.3_A5.1_F5.1_T5.2_[T11C] (ssRNA)
RNA: B1 RNA with U28A, A29C, U40C, C41A
B16: Id_ii_S2_P5E.4_K5.3_C5.2_[C-2T]_H5.3_A5.1_F5.1_T5.2 (ssRNA)
RNA: B1 RNA with A29U, C41A
B17: Id_ii_S2_P5E.4_K5.3_C5.2_[C-2T]_H5.3_A5.1_F5.1_T5.2_[T11C]_[A12T] (ssRNA)
RNA: B1 RNA with A29U, U40C, C41U
B18: Id_ii_S2_P5E.4_K5.3_C5.2_[C-2A]_[T-1C]_H5.3_A5.1_F5.1_T5.2_[T11C]_[A12G] (ssRNA)
RNA: B1 RNA with U28A, A29C, U40C, C41G
B19: Id_ii_S2_P5E.4_K5.3_C5.2_[C-2A]_[T-1A]_H5.3_A5.1_F5.1_T5.2_[T11A] (ssRNA)
RNA: B1 RNA with U28A, U40A, C41A
B20: Id_ii_S2_P5E.4_K5.3_C5.2_[C-2T]_H5.3_A5.1_F5.1_T5.2_[T11A]_[A12C] (ssRNA)
RNA: B1 RNA with A29U, U40A
B21: Id_ii_S2_P5E.4_K5.3_C5.2_[C-2T]_H5.3_A5.1_F5.1_T5.2_[T11A]_[A12T] (ssRNA)
RNA: B1 RNA with A29U, U40A, C41U
B22: Id_ii_S2_P5E.4_K5.3_C5.2_[C-2T]_H5.3_A5.1_F5.1_T5.2_[T11C]_[A12C] (ssRNA)
RNA: B1 RNA with A29U, U40C
B23: Id_ii_S2_P5E.4_K5.3_C5.2_[C-2A]_H5.3_A5.1_F5.1_T5.2_[A12C] (ssRNA)
RNA: B1 RNA with U28A, A29U
B24: Id_ii_S2_P5E.4_K5.3_C5.2_[C-2A]_H5.3_A5.1_F5.1_T5.2_[T11C]_[A12G] (ssRNA)
RNA: B1 RNA with U28A, A29U, U40C, C41G
B25: Id_ii_S2_P5E.4_K5.3_C5.2_[C-2A]_[T-1A]_H5.3_A5.1_F5.1_T5.2_[T11C]_[A12C] (ssRNA)
RNA: B1 RNA with U28A, U40C
B26: Id_ii_S2_P5E.4_K5.3_C5.2_[C-2A]_[T-1C]_H5.3_A5.1_F5.1_T5.2_[T11A]_[A12C] (ssRNA)
RNA: B1 RNA with U28A, A29C, U40A
B27: Id_ii_S2_P5E.4_K5.3_C5.2_[C-2A]_[T-1C]_H5.3_A5.1_F5.1_T5.2_[A12C] (ssRNA)
RNA: B1 RNA with U28A, A29C
B28: Id_ii_S2_P5E.4_K5.3_C5.2_[C-2A]_H5.3_A5.1_F5.1_T5.2_[T11C]_[A12T] (ssRNA)
RNA: B1 RNA with U28A, A29U, U40C, C41U
B29: Id_ii_S2_P5E.4_K5.3_C5.2_[C-2A]_H5.3_A5.1_F5.1_T5.2_[T11C]_[A12C] (ssRNA)
RNA: B1 RNA with U28A, A29U, U40C
B30: Id_ii_S2_P5E.4_K5.3_C5.2_[T-1G]_H5.3_A5.1_F5.1_T5.2_[T11C]_[A12T] (ssRNA)
RNA: B1 RNA with U28C, A29G, U40C, C41U
B31: Id_ii_S2_P5E.4_K5.3_C5.2_[C-2T]_H5.3_A5.1_F5.1_T5.2_[T11C]_[A12G] (ssRNA)
RNA: B1 RNA with A29U, U40C, C41G
B32: Id_ii_S2_P5E.4_K5.3_C5.2_[C-2A]_H5.3_A5.1_F5.1_T5.2_[T11A] (ssRNA)
RNA: B1 RNA with U28A, A29U, U40A, C41A
B33: Id_ii_S2_P5E.4_K5.3_C5.2_[T-1G]_H5.3_A5.1_F5.1_T5.2_[T11C] (ssRNA)
RNA: B1 RNA with U28C, A29G, U40C, C41A
B34: Id_ii_S2_P5E.4_K5.3_C5.2_[C-2A]_H5.3_A5.1_F5.1_T5.2_[A12G] (ssRNA)
RNA: B1 RNA with U28A, A29U, C41G
B35: Id_ii_S2_P5E.4_K5.3_C5.2_[C-2A]_H5.3_A5.1_F5.1_T5.2_[T11C] (ssRNA)
RNA: B1 RNA with U28A, A29U, U40C, C41A
B36: Id_ii_S2_P5E.4_K5.3_C5.2_[C-2A]_[T-1A]_H5.3_A5.1_F5.1_T5.2 (ssRNA)
RNA: B1 RNA with U28A, C41A
B37: Id_ii_S2_P5E.4_K5.3_C5.2_[C-2A]_[T-1C]_H5.3_A5.1_F5.1_T5.2_[A12T] (ssRNA)
RNA: B1 RNA with U28A, A29C, C41U
B38: Id_ii_S2_P5E.4_K5.3_C5.2_[C-2T]_H5.3_A5.1_F5.1_T5.2_[T11G]_[A12C] (ssRNA)
RNA: B1 RNA with A29U, U40G
B39: Id_ii_S2_P5E.4_K5.3_C5.2_[C-2A]_[T-1C]_H5.3_A5.1_F5.1_T5.2_[T11C]_[A12C] (ssRNA)
RNA: B1 RNA with U28A, A29C, U40C
B40: Id_ii_S2_P5E.4_K5.3_C5.2_[C-2T]_H5.3_A5.1_F5.1_T5.2_[A12C] (ssRNA)
RNA: B1 RNA with A29U
B41: Id_ii_S2_P5E.4_K5.3_C5.2_[C-2A]_[T-1A]_H5.3_A5.1_F5.1_T5.2_[A12T] (ssRNA)
RNA: B1 RNA with U28A, C41U

The binders below were run against T1, PUF4 RNA-binding domain (assay: Mg; RNA-MaP; 20 mM Na-HEPES pH 7.4, 30 mM KOAc, 0.75 mM MgCl2, 0.1% Tween-20, 5% glycerol, 0.1 mg/mL BSA, 2 mM DTT; 25 C; 0.0125-409.6 nM protein). Details: tags: N-His6-TEV cleaved; C-SNAP kept, Cy3B-labelled; label: tethered on chip by stalled RNA polymerase.

| Binder | Kd |
| --- | --- |
| UCUCUUUGUAAUAUAAUCUCUU (ssRNA) [Ib_S1_P5E.1_K5.1_C5.1_H5.1_A5.1_[T5A]_F5.1_[T9A]_T5.1] | 3.3 nM |
| UCUCUUUGUAUCAUGAUCUCUU (ssRNA) [Ib_S1_P5E.1_K5.1_C5.1_H5.1_A5.1_[T6C]_F5.1_[T9G]_T5.1] | 24.9 nM |
| B1 | > 2300 nM |
| B2 | 754 nM |
| B3 | 674 nM |
| B4 | > 2300 nM |
| B5 | > 2300 nM |
| B6 | 129 nM |
| B7 | 97.8 nM |
| B8 | > 2300 nM |
| B9 | 902 nM |
| B10 | > 2300 nM |
| B11 | 1990 nM |
| B12 | 161 nM |
| B13 | > 2300 nM |
| B14 | 790 nM |
| B15 | > 2300 nM |
| B16 | 722 nM |
| B17 | 1530 nM |
| B18 | > 2300 nM |
| B19 | > 2300 nM |
| B20 | > 2300 nM |
| B21 | > 2300 nM |

| Binder | Kd |
| --- | --- |
| B22 | 1930 nM |
| B23 | 131 nM |
| B24 | 674 nM |
| B25 | > 2300 nM |
| B26 | > 2300 nM |
| B27 | > 2300 nM |
| B28 | 117 nM |
| B29 | 110 nM |
| B30 | > 2300 nM |
| B31 | > 2300 nM |
| B32 | 208 nM |
| B33 | > 2300 nM |
| B34 | 1310 nM |
| B35 | 136 nM |
| B36 | 875 nM |
| B37 | > 2300 nM |
| B38 | > 2300 nM |
| B39 | > 2300 nM |
| B40 | 1890 nM |
| B41 | > 2300 nM |
| UCUCUUUGUAUCAUCAUCUCUU (ssRNA) [Ib_S1_P5E.1_K5.1_C5.1_H5.1_A5.1_[T6C]_F5.1_[T9C]_T5.1] | 15.5 nM |
| UCUCUUUGUAUAAUCAUCUCUU (ssRNA) [Ic_S1_P5E.1_K5.1_C5.1_H5.1_A5.1_[T6A]_F5.1_[T9C]_T5.1] | 19.7 nM |
